In patent US12723255B2, “Herbicide tolerance genes and methods of use thereof” (priority 2014, dated 2026):
Where “and” joins values, the source holds several entries; their conditions need not be identical. Equal entries are not always repeated.

How the values were obtained:
[1] = enzyme activity assay at 23° C. with purified enzyme; type: biochemical
Experimental: The enzyme activity of MON-HT protein variants with haloxyfop, fenoxaprop, fluazifop, and dichlorprop as substrates was determined using the enzyme activity assay conducted at 23° C. with purified enzyme. The activity was recorded as the maximum activity as a percentage of the wild-type enzyme's activity, which was set at 100%.

F1 hybrid maize plants [2] = assay: efficacy field trial for quizalofop-P tolerance and clethodim sensitivity; type: in vivo; details: scale 0 to 100; clethodim 0.25 lb ai/acre at V8; volunteer control
Experimental: (§1) Separate trait efficacy field trials for quizalofop-P and 2,4-D were conducted at two locations cach with F1 hybrid transgenic plants produced by crossing an inbred plant containing maize event MON89034 with an R1 plant containing MON-HT55 (with a CTP), MON-HTI (with or without a CTP), MON-HT2 (with or without a CTP), MON-HT3 (with a CTP), MON-HT4 (with a CTP), MON-HT5 (with a CTP), MON-HT6 (with a CTP), or MON-HT7 (with a CTP). Transgenic F1 hybrid plants containing maize events NK603×MON89034 were used for comparison as a control.
In the efficacy field trial for quizalofop-P tolerance and clethodim sensitivity, one of four herbicide treatments was used: (1) quizalofop-P (Assure II) at 0.32 lb ai/acre (4×) plus 0.25% v/v non-ionic surfactant (NIS) applied at VE-V2 growth stage followed by the same at V4 growth stage followed by the same at V8 growth stage; (2) quizalofop-P at 0.64 lb ai/acre (8×) plus 0.25% v/v NIS applied at VE to V2 growth stage followed by the same at V4 growth stage followed by the same at V8 growth stage; (3) quizalofop-P at 1.28 lb ai/acre (16×) plus 0.25% v/v NIS applied at VE to V2 growth stage followed by the same at V4 growth stage followed by the same at V8growth stage; or (4) clethodim at 0.25 lb ai/acre (1×) plus 0.25% v/v NIS applied at V8 growth stage. Plots were visually rated 10-14 days after application for crop injury on a scale of 0 to 100with “0” being none and “100” being complete crop destruction. Tables 14 and 15 show the average injury ratings after herbicide application at V4 or V8 growth stage, respectively.

F1 hybrid maize plants [3] = assay: efficacy field trial for 2,4-D tolerance; type: in vivo; details: scale 0 to 100, with CTP unless label says no CTP
Experimental: as §1
In the efficacy field trial for 2,4-D tolerance, one of four herbicide treatments was used: (1) 2,4-D amine at 2 lb ac/acre (2×) plus 0.25% v/v non-ionic surfactant (NIS) applied to VE to V2 followed by V4 followed by V8; (2) 2,4-D amine at 4 lb ac/acre (4×) plus 0.25% v/v NIS applied to VE to V2 followed by V4 followed by V8; (3) 2,4-D amine at 8 lb ac/acre (8×) plus 0.25% v/v NIS applied to VE to V2 followed by V4 followed by V8 maize; or (4) 2,4-D amine at 16 lb ac/acre (16×) plus 0.25% v/v NIS applied to VE to V2 followed by V4 followed by V8. Plots were visually rated as above. Tables 14 and 15 show the average injury ratings after herbicide application at V4 or V8 growth stage, respectively.

B1: MON-HT55: engineered oxygenase protein, amino acid sequence SEQ ID NO:11 (protein)
chain: MHAALSPLSQRFERIAVQPLTGVLGAEITGVDLREPLDDSTWNEILDAFHTYQVIYFPGQAITNEQHIAFSRRFGPVDPVPLLKSIEGYPEVQMIRREANESGRVIGENWHTDSTFLDAPPAAVVMYAKEIPPYGGDTLFTSMYTAWETLSPTMQATIEGLNVVHSATRVFGSLYQAQNRRFSNTSVKVMDVDAGDRETVHPLVVTHPETGRKGLYVNQVYCQRIEGMSEKESEPLLSFLFAHATKPEFTCRVRWQEGDVLVWDNLCTQHYAVPDYAGKFRYLTRTTVGGVRPAR
maximum activities for all four substrates compared with the wild-type enzyme ([1]; haloxyfop, fenoxaprop, fluazifop and dichlorprop): lower than, or equal to
maximum activity as a percentage of the wild-type enzyme's activity, Haloxyfop ([1]; purified enzyme, wild-type set at 100%): 58%
maximum activity as a percentage of the wild-type enzyme's activity, Dichlorprop ([1]; wild-type set at 100%): 31%
maximum activity as a percentage of the wild-type enzyme's activity, Fenoxaprop ([1]; wild-type set at 100%): 34%
maximum activity as a percentage of the wild-type enzyme's activity, Fluazifop ([1]; wild-type set at 100%): 38%
average injury rating, V8 Growth Stage, 1x Clethodim (F1 hybrid maize plants [2]): 94.5 and 93.3
average injury rating, V8 Growth Stage, 2x 2,4-D (F1 hybrid maize plants [3]; 2 lb ae/acre at VE-V2, V4, V8): 15.0 and 12.5 and 16.3 and 14.4 and 11.3
average injury rating, V4 Growth Stage, 4x 2,4-D (F1 hybrid maize plants [3]; 4 lb ae/acre at VE-V2, V4, V8): 31.3 and 22.5 and 41.3 and 23.1 and 30.0
average injury rating, V4 Growth Stage, 8x 2,4-D (F1 hybrid maize plants [3]; 8 lb ae/acre at VE-V2, V4, V8): 45.0 and 53.8 and 43.8 and 50.0 and 58.8 and 48.8
average injury rating, V8 Growth Stage, 8x 2,4-D (F1 hybrid maize plants [3]; 8 lb ae/acre at VE-V2, V4, V8): 33.8 and 36.3 and 39.4 and 30.0 and 35.0
average injury rating, V4 Growth Stage, 16x 2,4-D (F1 hybrid maize plants [3]; 16 lb ae/acre at VE-V2, V4, V8): 61.3 and 63.8 and 66.3 and 55.0 and 53.8 and 52.5
average injury rating, V8 Growth Stage, 16x 2,4-D (F1 hybrid maize plants [3]; 16 lb ae/acre at VE-V2, V4, V8): 57.5 and 52.5 and 55.0 and 56.9 and 47.5
